Substrate: NC(=O)CC[C@H](N)C(=O)O
Assay: cells, lysate or membranes
Format: cell-based, Arabidopsis thaliana

B1: CAT8 (Arabidopsis thaliana) (protein)
chain: MIPASMEEAHQLESRSDDLSQRRSYWRWRKQDFFPEFSFQSFSTYKSALSATCPRLADRLLSRSSDAYELDAARRESENPMRRCLTWWDLLWLSFGSVVGSGVFVITGQEARVGAGPAVVLSYAISGVSALLSVLCYAEFGVEIPVAGGSFSYLRVELGDFIAFIAAGNILLEAMVGAAGLGRSWSSYLASLVKNDSDYFRIKVDSFAKGFDLLDPVAVAVLLVANGIAMTGTKRTSWLNLITSMVTVCIIVFIVVVGFTHSKTSNLVPFFPYGAKGVVQSAAVVYWSYTGFDMVANMAEETEKPSRDIPIGLVGSMSMITVVYCLMALALTMMVKYTEIDANAAYSVAFAQIGMKWAKYLVGICALKGMTTSLLVGSLGQARYTTQIARSHMIPPWFALVHPKTGTPIYATLLVTILSSIISFFTSLEVLSSVFSFATLFIFMLVAVALLVRRYYVKDVTPEAGLLKFLGFLFLIIASSIGVSALWNSGVKGWIAYTVTGVIWFIGTLGLALLPKYRVPKVWGVPLVPWLPSFSIAMNLFLIGSLGYVAFLRFIICTMVMLLYYLFVGLHATYDVAHQPLEEAKFEGER
notes: CAT8 (At1g17120) expressed in Xenopus oocytes and in yeast 22Δ8AA
  Km: 100 µM
